The source of these data is patent publication CN117924490A (CHINA RESOURCES BIOMEDICAL CO LTD, dated 2024).

As usually defined, the IC50 is the concentration at which inhibition is half-maximal. Read a high IC50 as a need for much substance. The Kd is a measure of binding affinity in units of concentration. A high value points to a looser complex. Broadly, the EC50 is the concentration giving half of the maximal effect.

Assay [1] has as its target T1, IL-4Rα on HEK293-hSTAT6/5×STAT6-Luc cells (UniProt P24394 26-825, limits assumed).
T1 sequence (looked up): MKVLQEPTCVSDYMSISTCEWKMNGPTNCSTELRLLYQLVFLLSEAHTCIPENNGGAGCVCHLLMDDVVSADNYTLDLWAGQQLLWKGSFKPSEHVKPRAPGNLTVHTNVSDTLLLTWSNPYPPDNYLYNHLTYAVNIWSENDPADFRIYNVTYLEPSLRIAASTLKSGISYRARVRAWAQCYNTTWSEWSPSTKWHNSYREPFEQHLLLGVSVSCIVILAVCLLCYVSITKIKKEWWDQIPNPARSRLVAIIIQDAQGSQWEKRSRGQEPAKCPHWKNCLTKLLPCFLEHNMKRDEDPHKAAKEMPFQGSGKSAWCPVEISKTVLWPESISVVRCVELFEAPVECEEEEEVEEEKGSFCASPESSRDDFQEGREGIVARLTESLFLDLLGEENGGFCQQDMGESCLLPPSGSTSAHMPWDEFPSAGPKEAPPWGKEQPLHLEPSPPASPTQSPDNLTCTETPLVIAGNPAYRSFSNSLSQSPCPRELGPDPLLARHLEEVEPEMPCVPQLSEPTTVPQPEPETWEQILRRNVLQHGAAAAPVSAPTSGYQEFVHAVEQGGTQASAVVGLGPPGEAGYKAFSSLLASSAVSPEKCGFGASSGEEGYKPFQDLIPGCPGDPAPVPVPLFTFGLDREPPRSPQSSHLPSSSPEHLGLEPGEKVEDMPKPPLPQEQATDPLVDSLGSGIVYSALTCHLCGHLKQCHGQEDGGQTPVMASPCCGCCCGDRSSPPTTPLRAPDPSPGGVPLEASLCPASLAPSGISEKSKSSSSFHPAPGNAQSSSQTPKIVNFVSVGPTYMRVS
In words: cell-based or functional assay.

Assay [2] addresses T2, 人IL-4R表达于HEK293-IL-4R细胞表面 (human IL-4R on the surface of HEK293-IL-4R cells) (human, UniProt P24394 26-825).
T2 construct: whole, on cells; The construct in the HEK293-IL-4R line is not described; also called 人IL-4R过表达细胞; 细胞表面IL-4R
T2 sequence (looked up): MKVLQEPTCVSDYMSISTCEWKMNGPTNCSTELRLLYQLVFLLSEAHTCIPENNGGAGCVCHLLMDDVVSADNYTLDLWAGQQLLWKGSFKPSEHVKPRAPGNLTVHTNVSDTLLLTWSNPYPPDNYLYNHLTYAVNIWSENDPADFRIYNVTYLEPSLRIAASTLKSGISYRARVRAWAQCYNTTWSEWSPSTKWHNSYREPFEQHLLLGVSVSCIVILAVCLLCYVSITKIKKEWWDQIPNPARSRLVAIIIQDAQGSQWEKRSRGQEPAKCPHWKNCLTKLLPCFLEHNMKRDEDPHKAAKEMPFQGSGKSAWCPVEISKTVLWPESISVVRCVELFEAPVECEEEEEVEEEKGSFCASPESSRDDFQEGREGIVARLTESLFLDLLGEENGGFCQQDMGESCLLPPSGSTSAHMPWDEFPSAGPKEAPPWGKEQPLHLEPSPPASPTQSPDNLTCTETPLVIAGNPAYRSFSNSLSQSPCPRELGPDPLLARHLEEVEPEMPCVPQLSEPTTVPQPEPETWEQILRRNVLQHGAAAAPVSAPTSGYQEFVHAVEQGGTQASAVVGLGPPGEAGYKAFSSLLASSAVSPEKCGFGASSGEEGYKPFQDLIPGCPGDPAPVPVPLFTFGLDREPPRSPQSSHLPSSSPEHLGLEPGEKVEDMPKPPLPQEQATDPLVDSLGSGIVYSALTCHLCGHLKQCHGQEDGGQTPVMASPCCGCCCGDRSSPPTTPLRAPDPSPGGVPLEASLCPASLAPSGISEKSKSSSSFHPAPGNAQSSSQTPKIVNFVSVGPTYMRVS
In words: FACS competition: blocking of biotinylated human IL-4 binding to HEK293-IL-4R cells, PE streptavidin, MFI.

Assay [3] concerns the target T3, IL-4R蛋白 (Acrobiosystems, IL-H5221) (human, UniProt P24394 26-232).
T3 construct: The two catalogue numbers differ by one letter, likely a misprint; also called Human IL4R Protein, His Tag (Acro, ILR-H5221); 人IL 4R
T3 sequence (looked up): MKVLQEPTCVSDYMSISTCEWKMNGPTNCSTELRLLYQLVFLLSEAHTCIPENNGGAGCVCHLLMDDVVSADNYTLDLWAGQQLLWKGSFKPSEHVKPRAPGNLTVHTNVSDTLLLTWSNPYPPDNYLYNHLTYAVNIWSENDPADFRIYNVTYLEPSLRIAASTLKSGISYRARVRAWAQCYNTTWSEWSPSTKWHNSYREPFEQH
In words: BLI (Octet RH96), antibody captured on AHC2 probes, IL-4R protein in solution, 1:1 model. A general note: BLI is a label-free optical method that tracks binding on a fibre tip over time.

Assay [4] deals with T2, 人IL-4R表达于HEK293-IL-4R细胞表面 (human IL-4R …). In words: FACS on HEK293-IL-4R cells, FITC anti-human IgG, MFI.

B1: 65G5 (antibody, human IgG1, kappa, V domains shown)
VH: EVKLVESGGALVQPGGSLKLSCAASGFTFNSYGMSWVRQTPDKRLELVAVISSDGAYTYYPDSMKGRFTISRDNAKSSLYLQMSSLQSEDTAMYYCTLITTWYFDVWGAGTTVTVSS
VL: DIQMTQSSSSFSVSLGDRVTITCKASEELYNRLAWYQQKPGNAPRLFISGATTLETGVPSRFSGSGSGKDYTLSITSLQTEDVATYYCQQYWSSPYTFGGGTKLELKR
notes: also called 抗人IL-4R抗体; 抗IL-4R抗体
For B1, in assay [1], the “抑制IL-4诱导的HEK293-hSTAT6/5×STAT6-Luc细胞中STAT6磷酸化活性 (luciferase reporter, IL4 protein 40ng/mL) IC50” value turned out to be 92.7 nM and the “抑制IL-13诱导的HEK293-hSTAT6/5×STAT6-Luc细胞中STAT6磷酸化活性 (luciferase reporter, IL-13 protein 10ng/mL) IC50” value was found to be 5.6 nM. The IC50 in assay [2] is 0.075 mg/L. Also, the Kd in assay [3] was 0.341 nM. In addition, the EC50 in assay [4] amounted to 0.334 mg/L.
